Data taken from US20210292423A1 (published 2021).
Numbering of substitutions follows the chain as printed.

B1: 20E5-F10 anti-CD3 antibody (hybridoma supernatant) (antibody, V domains shown)
VH: EVQLVETGENLVQPGKSLRLTCATSGFSFSNAWMHWIRQSPEKQLEWVAQIKDKSNNYATYYAESVNGRFTISRDDSKSSIYLHMDNLKEEDSAIYYCRYVHYGVRFFYTMDVWGQGTSVTVSS
VL: DVVMTQTPVSLSVSLGDQVSISCRPSQSLVHNNGNTYLSWYLQKPGQSPHPLIYKVSNRFSGISDRFSGSGSGTDFTLKISRVEPDDLGVYYCGQGTQYPFTFGSGTKLEIK
notes: rat IgG in hybridoma supernatant
B2: 18G9-H11 anti-CD3 antibody (hybridoma supernatant) (antibody, V domains shown)
VH: EVQLVETGGSLVQPGKSLKLTCATSGFTFSNAWIQWVRQSPEKQLEWVAQIKAKSNNYATYYAESVKGRFTISRDDSKSSVYLQMNSLKEEDTALYYCTWRHYYSSHTMDAWGQGTLVTVSS
VL: B1 VL with D17G, P25S, H50Q, P51L, E84A, D86T, T97S, S105A, I111L
notes: as for B1
B3: 16F8-A7 anti-CD3 antibody (hybridoma supernatant) (antibody, V domains shown)
VH: VETGGNLVQPGKSLKLTCATSGFTFSNAWMHWVRQSPEKQLEWVAQIKAKSNNYATYYAESVKGRFTISRDDSKSSVYLQMNSLKEEDTAIYYCRYVNYGLAPMDVWGQGTSVTVSS
VL: B1 VL with D17G, P25S, H50Q, P51L, I63F, S105A, I111L
notes: as for B1
B4: 3H6-D2 anti-CD3 antibody (hybridoma supernatant) (antibody, V domains shown)
VH: EVQLVETGGRLVQPGKSLKLTCATSGFTFSNAWMHWVRQSPEKQLEWVAQIKDKSNNYATYYAESVKGRFTISRDDSKSIIYLQMNSLKEEDTAIYYCRALTYYGYKRDAMDGWGHGTSVTVSS
VL: B1 VL with D17G, P25S, H50Q, P51L, S105A, I111L
notes: as for B1
B5: 2B8-F3 anti-CD123 rat IgG (hybridoma supernatant) (antibody, V domains shown)
VH: EVQLVESGGGLVQPGRSLKLSCAASGFTFSDYNMAWVRQAPKKGLEWVATILYDGGRTYYRGSVKGRFTISRDNAKSTLYLRMDSLRSEDTATYYCATHSRGTDYFDYWGQGVMVTVSS
VL: EIVLTQSPTSMTASPGEQVTITCRASSSINYMHWYQQKPGASPRPWIYETSKLASGVPDRFSGSASGTSYSLTINNMEAEDAATYYCQQWNYPSWTFGGGTKLELK
notes: rat IgG; also called BFX - 2B8
B6: 3B10-E6 anti-CD123 rat IgG (hybridoma supernatant) (antibody, V domains shown)
VH: QVQLQQSGPELRRPGSSVRLSCKASGYRIKDFLIHWIKNRPEHGLEWIGWIDPEDGETKYAQKFQTKATLTADTSSNTAYMQLSSLTSEDTATYFCARWGDVYYGLMRGHVMDAWGQGTSVTVSS
VL: DVLMTQTPVSLPVSLGGQVSISCRSSQSLVHSDGDTYLHWYLQKPGQSPQLLIYRVSNRFSGVPDRFSGSGSGTDFTLKISRVEPEDLGLYYCLQTTHFPPWTFGGGTKLEMK
notes: rat IgG; also called BFX - 3B10
B7: 2F8-D6 anti-CD123 rat IgG (hybridoma supernatant) (antibody, V domains shown)
VH: QVQLKESGPGLVQPSQTLSLTCTVSGFSLTSYGVSWVRQPPGKGLEWIATISSAGSTYYDLVLKSRLSITRDTSKSQVFLKVHSLQTEDTAIYLCARDAPVFNYGSYNAMDSWGQGTSVTVSS
VL: DIQMTQSPSFLSATVGDRVTINCKASQNINKYLNWYQQKLGEAPKRLIYNTNSLQTGIPSRFSGSGSGTDYTLTISSLQPEDVATYFCLQHKSGLTFGSGTKLEIK
notes: rat IgG; also called BFX - 2F8
B8: 1E1-G5 anti-CD123 rat IgG (hybridoma supernatant) (antibody, V domains shown)
VH: QVQLQESGPTLVKPGDSVKMSCKAFGYTFTDHIIHWVKQSHGKSLEWIGYINPYSGGTNYNEKFKSKATLTVDKSSSTAYMEFSRLTSEDSAICYCALNYGSYYAMDAWGQGTSVTVSS
VL: DIQMTQSPASLSASLGQTVTIECRPSEDIYSNLAWFQQKPGSSPQLLIYDANNLADGVPSRFSGSGSGTQYSLKINSLQSEDVASYFCQQYNKYPYTFGTGTKLELK
notes: rat IgG; also called BFX - 1E1
B9: 6D6-B8 anti-CD123 rat IgG (hybridoma supernatant) (antibody, V domains shown)
VH: B8 VH with F25S, G26A, H32N, E46D, E62G, K63W, K65R, E89D, C94Y
VL: DIQMTQSPASLSASLGETVTIDCRPSEDIFNNLAWYQQKPGNSPQLLIYDANSLADGVPSRFSGSGSGTQYSLMIIRLQSEDVASYFCHQYNIYPYTFGAGTKLELK
notes: rat IgG; also called BFX - 6D6
B10: 6B10-E4 anti-CD123 rat IgG (hybridoma supernatant) (antibody, V domains shown)
VH: EVQLVESGGGLVQPGRSLKLSCAASGFTFSHYNMAWVRQAPKKGLEWVATITYDDHSTYYRDSVKGRFTISRDTAKSTLYLQMDSLRSEDTATYYCARLVNYAFAYWGQGTLVTVSS
VL: NIVMTQSPKSMSISVGDRVTMNCKASQTVGNNIAWYQQKPGLSPQLLIDYASNRYTGVPNRFTGGGYGTDFILTINSVQAEDAAFYYCQRMYNSPTFGGGTKLELK
notes: rat IgG; also called BFX - 6B10
B11: 5A5-B4 anti-CD123 rat IgG (hybridoma supernatant) (antibody, V domains shown)
VH: QIQIVQSGSDVTSTCNGCGTCYFSGFSLSTTGICVSWIRQPSGKGQEWLADFCWDDGKGYNPSLKNRLSISKDTSNNQVFLKITSVDTADTATYYCARRRVYYGIYFDYWGQGVMVTVSS
VL: DIVMTQSPALAVSPGERVSISCRASNSVSTRMHWYQQKPGQQPKLLIYGASNLESGVPARFSGSGSGTDFTLTIDPVEADDIATYFCQQSWNDPLTFGSGTKLEIK
notes: rat IgG; also called BFX - 5A5
B12: 3E3-D3 anti-CD123 rat IgG (hybridoma supernatant) (antibody, V domains shown)
VH: QVQLQESGPGLVQPSQTLSLTCTVSGFSLTTYDVHWVRQPPGKGLEWMGRIQNGGITDYNSALKSRLIISRDTSKSQVFLKMNSVQTEDTAMYFCAKTGSYFYAFDHWGQGTLVTVSS
VL: QFVLTQPNSVSTNLGSTVKLSCKRNTGNIGSNYVNWYQQHEGRSPTTMIYRDDKRPDGVPDRFSGSIDRSSNSALLTINNVQTEDEADYFCQSYSSGINIIFGGGTKLTVL
notes: rat IgG; also called BFX - 3E3
B13: 5B1-G2 Fab (Fab, V domains shown)
VH: EVQVVETGGSLVQPGKSLKLTCATSGFSFSNAWMHWVRQSPEKQLEWVAQIKDKANNYATYYAESVKGRFTISRDDSKGSIYLQMNSLKEEDTAVYYCRGLYYGLFPSDYWGQGVMVTVSS
VL: B1 VL with D17G, P25S, Q43L, H50Q, P51L, S70G, V83L, V90I
B14: 12D2-E5 Fab (Fab, V domains shown)
VH: EVKLVESGGGLVQPGRSLRLSCAASGFNFYAYWMGWVRQAPGKGLEWIGEIKKDGTTINYTPSLKDRFTISRDNAQNTLYLQMTKLGSEDTALYYCAREERDGYFDYWGQGVMVTVSS
VL: QFVLTQPNSVSTNLGSTVKLSCKRSTGNIGSNYVNWYQQHEGRSPTTMIYRDDKRPDGVPDRFSGSIDRSSNSALLTINNVQTEDEADYFCQSYSSGIVFGGGTKLTVL

These binders were tested against T1, human CD3ε/δ-Fc fusion protein (soluble recombinant CD3ε/δ complex) (human, UniProt P04234 22-105) (assay: SPR single point, hybridoma supernatant).
T1 construct: also called huCD3ε/δ; huCD3; not shown: hinge, CH2, CH3 of human IgG with tag
T1 sequence (chain, as listed by the source mutant, chain 1 of 2): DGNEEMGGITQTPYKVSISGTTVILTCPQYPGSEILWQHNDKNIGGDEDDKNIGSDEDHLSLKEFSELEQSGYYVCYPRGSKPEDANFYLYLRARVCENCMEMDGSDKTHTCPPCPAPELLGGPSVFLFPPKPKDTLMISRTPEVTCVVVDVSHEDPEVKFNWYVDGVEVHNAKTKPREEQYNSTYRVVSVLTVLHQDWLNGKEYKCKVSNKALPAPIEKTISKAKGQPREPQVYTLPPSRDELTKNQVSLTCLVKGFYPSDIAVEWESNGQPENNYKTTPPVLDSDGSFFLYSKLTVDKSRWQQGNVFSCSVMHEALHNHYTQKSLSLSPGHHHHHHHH
T1 sequence (P04234 22-105, stated change not applied, chain 2 of 2): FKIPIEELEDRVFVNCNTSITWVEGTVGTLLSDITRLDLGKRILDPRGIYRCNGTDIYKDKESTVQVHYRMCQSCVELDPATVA
Description: Rats with positive sera were scarified and B cells were fused with mouse myeloma cells. The resulting hybrndomas were screened on HEK293 cells transfected with human or cynomoligus CD3ε and CD3δ expression plasmids, on Jurkat E6.1 (CD3+) and Jurkat T3.5 (CD3-) by flow cytometry. Supernatant of Hybridoma clones was used to assess by surface plasmon resonance single point kinetic against human and Macaca fascicularis CD3ε/δ complex by fixing the analyte at 25 nM (data presented in table 3).

RU at 25 nM | Binder
12 RU | B1
7 RU | B2
17.5 RU | B3
9.5 RU | B4

Each binder was assayed against T2, human CD123 (IL3RA) on cells (human, UniProt P26951 19-378) (assay: flow cytometry, CD123 transfected HEK293, hybridoma supernatant).
T2 construct: also called CD123 transfected HEK293; THP-1
T2 sequence (P26951 19-378): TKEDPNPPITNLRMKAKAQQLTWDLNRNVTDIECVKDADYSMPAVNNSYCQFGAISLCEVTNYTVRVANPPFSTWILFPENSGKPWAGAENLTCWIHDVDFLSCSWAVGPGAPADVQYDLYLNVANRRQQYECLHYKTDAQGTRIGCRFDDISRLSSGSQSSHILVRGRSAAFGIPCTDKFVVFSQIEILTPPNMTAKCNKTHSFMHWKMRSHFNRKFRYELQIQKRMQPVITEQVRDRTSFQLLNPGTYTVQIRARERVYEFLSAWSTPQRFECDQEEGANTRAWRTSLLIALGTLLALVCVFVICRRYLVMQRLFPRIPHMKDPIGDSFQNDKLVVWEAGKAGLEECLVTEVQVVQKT
Description: Cells were resuspended in 200 μl Stain Buffer with FBS per well and were measured using the MACSQuant (Miltenyi Biotec) or LSRII (BD) flow cytometer. Further data analyses were performed using the FlowJo software (Tree Star, Inc.). Read out was percentage of cells positive for antibody binding. Cells treated only with the secondary but no primary antibody were used to set the gates. Curves were calculated by XLfit (Algorithm 205).

EC50 | Binder
5.5 ng/mL | B5
2 ng/mL | B6
3.4 ng/mL | B7
2.2 ng/mL | B8
0.9 ng/mL | B9
5 ng/mL | B10
10.1 ng/mL | B11
2 ng/mL | B12

Each binder was assayed against T3, human CD3δ expressed alone on HEK293F cells (human, UniProt P04234 22-171) (assay: flow cytometry, HEK293F transfected with huCD3δ).
T3 construct: entry includes the signal peptide; also called huCD3δ
T3 sequence (P04234 22-171 limits assumed, stated change not applied): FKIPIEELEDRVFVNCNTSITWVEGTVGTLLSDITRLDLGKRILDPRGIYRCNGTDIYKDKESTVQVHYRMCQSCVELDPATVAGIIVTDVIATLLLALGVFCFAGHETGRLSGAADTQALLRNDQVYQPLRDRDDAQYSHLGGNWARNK
Description: To analyze binding of antibodies to human CD3ε and human CD3δ expressed on the surface of cells, HEK293F cells were transfected with both constructs either alone or in co-transfection and signals were measured by flow cytometry. For transfection procedure FuGENE HD Transfection Reagent (Promega, #E2311) was used according to manufacturer's protocol.
Cells were incubated on a shaker at 37° C. and 5% CO2. At day one to three after transfection cells were harvested and binding of antibodies was analyzed by flow cytometry.
Antibodies for staining were seeded at 1 μg in 50 μl per well Stain Buffer with FBS (BD Pharmingen) in 96-well U-bottom suspension culture plates (Greiner bio-one). Harvested transfected cells were resuspended in Stain Buffer with FBS and were added at 50 μl per well to the antibodies. Cells were incubated at 4° C. in the dark for 30 min and were washed twice. 0.5 μg secondary antibody Goat F(ab′)2 Anti-Human IgG-FITC (Beckman Coulter, #732598) or Goat F(ab′)2 Anti-Human kappa-PE (Southern Biotech, #206209), respectively, in combination with 0.5 μg 7-AAD per well was added in 100 μl Stain Buffer with FBS. Cells were incubated at 4° C. in the dark for 15 min and were washed twice. For measurement, cells were resuspended in 200 μl Stain Buffer with FBS. Cells were measured using the MACSQuant (Miltenyi Biotec) or LSRII (BD) flow cytometer, respectively. Further data analyses were performed using the FlowJo software (Tree Star, Inc.).

Binder | binding result
B13 | no binding (tested: <20% of binding of huCD3e + huCD3d)
B14 | no binding (tested: <20% of binding of huCD3e + huCD3d)

The binders below were run against T4, Macaca fascicularis CD123 Fc-fusion protein (Macaca fascicularis) (assay: SPR Proteon XPR36, rat IgG captured, CD123-Fc analyte).
T4 construct: also called cyno CD123-Fc
T4 sequence (chain, as listed by the source limits assumed): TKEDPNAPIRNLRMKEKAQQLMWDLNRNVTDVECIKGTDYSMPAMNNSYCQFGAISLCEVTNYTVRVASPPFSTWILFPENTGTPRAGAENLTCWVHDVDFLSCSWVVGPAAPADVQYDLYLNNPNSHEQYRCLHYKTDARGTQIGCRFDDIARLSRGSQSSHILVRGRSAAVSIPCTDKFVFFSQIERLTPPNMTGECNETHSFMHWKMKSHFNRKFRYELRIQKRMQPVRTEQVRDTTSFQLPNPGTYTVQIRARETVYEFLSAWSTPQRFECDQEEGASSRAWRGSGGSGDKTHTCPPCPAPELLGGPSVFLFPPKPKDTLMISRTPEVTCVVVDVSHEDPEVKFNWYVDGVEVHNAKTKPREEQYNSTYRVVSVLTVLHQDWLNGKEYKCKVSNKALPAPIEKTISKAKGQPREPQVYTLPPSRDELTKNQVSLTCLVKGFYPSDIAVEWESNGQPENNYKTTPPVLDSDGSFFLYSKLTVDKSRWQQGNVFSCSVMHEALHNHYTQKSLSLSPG
Description: (§1) Screening of anti-CD123 rat IgGs for binding affinities to human CD123 and cross-reactivities to cyno CD123 was performed with hybridoma supernatants using a Proteon XPR36 (Biorad) in a one-shot kinetics approach. A capture assay was established using a goat anti-rat IgG (112-005-071, Jackson Immuno Research). The capture antibody was coated on GLC chips (176-5011, Biorad) to approx. 8000 RU in the vertical direction using the amine coupling kit (176-2410, Biorad). […] Binding kinetics with human and cyno CD123-Fc fusion protein was measured at 100 μl/min in the horizontal direction with 120 sec. and 600 sec. for association and dissociation, respectively. The CD123-Fc proteins were used in twofold dilutions from 6 nM to 100 nM. PBSET buffer (176-2730, Biorad) was used as assay buffer. Regeneration was achieved by injection of 10 mM Glycine buffer pH 1.5 for 18 sec at 30 μl/min. Data processing and analysis was performed using ProteonManager software v3.0. Fitting of the sensorgrams was done with a 1:1 Langmuir model.

Kd | Binder
0.77 nM | B5
0.27 nM | B6
0.51 nM | B7
0.72 nM | B8
0.1 nM | B10
0.05 nM | B11
0.12 nM | B12

These binders were tested against T5, human CD123 Strep-II tagged Fc-fusion protein (human) in the same assay as above.
T5 construct: also called human CD123-Fc; recombinant CD123
T5 sequence (chain, as listed by the source limits assumed): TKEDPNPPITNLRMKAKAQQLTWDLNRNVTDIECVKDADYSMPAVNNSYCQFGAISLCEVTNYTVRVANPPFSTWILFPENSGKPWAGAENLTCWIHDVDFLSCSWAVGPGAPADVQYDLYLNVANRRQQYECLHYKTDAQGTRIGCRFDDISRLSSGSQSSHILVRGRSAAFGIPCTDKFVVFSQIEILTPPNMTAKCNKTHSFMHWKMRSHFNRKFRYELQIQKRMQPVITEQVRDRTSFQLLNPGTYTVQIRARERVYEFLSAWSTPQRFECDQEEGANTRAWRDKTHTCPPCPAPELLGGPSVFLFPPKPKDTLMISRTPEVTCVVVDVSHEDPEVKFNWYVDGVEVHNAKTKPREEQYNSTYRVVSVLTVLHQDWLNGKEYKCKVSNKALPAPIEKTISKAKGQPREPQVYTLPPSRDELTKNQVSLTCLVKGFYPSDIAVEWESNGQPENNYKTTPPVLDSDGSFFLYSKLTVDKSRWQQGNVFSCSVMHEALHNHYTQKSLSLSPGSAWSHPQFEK
Description: as §1

Kd | koff | kon | Binder
0.018 nM | 1.2e-05 s⁻¹ | 660000 M⁻¹ s⁻¹ | B5
0.53 nM | 6.6e-05 s⁻¹ | 130000 M⁻¹ s⁻¹ | B7
0.23 nM | 0.00011 s⁻¹ | 460000 M⁻¹ s⁻¹ | B8
0.15 nM | 1.5e-05 s⁻¹ | 230000 M⁻¹ s⁻¹ | B10
1.1 nM | 0.00012 s⁻¹ | 130000 M⁻¹ s⁻¹ | B11
0.4 nM | 6.4e-05 s⁻¹ | 160000 M⁻¹ s⁻¹ | B12
